Measurements reported in article doi:10.1101/2024.12.12.628194.

Assays:
[1] = molecular target: TaqCad1 (CARF-fused adenosine deaminase Cad1 from Thermoanaerobaculum aquaticum), wild type (Thermoanaerobaculum aquaticum); assay: cryo-EM structure
[2] = molecular target: TaqCad1 R408D/A411E variant (Thermoanaerobaculum aquaticum); assay: SEC

stoichiometry N [1] | stoichiometry N [2] | Substance
6 | – | TaqCad1 (CARF-fused adenosine deaminase Cad1 from Thermoanaerobaculum aquaticum), wild type (enzyme)
– | 2 | TaqCad1 R408D/A411E variant (enzyme)
